Where two headings read alike, the source gives them in different places. Blank lines part the entries; values can stand above or below the binder they belong to.
How the values were obtained:
[1] = target: T1, human DLL3 on DLL3+ tumor cells (human, UniProt Q9NYJ7 27-618); assay: cell-based or functional assay
T1 sequence: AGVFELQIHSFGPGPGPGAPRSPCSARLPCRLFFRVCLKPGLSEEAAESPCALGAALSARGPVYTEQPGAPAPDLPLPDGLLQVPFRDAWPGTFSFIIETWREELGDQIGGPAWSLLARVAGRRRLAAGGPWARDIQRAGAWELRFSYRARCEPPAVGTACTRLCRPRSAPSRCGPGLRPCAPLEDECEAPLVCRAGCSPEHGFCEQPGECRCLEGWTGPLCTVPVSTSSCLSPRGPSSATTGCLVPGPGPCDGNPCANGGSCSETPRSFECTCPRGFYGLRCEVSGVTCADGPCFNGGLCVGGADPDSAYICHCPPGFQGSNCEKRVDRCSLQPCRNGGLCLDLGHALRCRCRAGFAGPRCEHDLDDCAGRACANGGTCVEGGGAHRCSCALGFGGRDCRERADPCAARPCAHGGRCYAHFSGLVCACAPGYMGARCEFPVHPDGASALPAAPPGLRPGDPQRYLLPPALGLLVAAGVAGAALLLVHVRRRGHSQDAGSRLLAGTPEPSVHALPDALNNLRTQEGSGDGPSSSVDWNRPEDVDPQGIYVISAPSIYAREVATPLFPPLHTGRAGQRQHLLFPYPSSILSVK

[2] = target: T2, recombinant human DLL3 (Example 9, construct not named) (human, UniProt Q9NYJ7 27-492, limits assumed); assay: SPR (Biacore T200), antibody captured by goat anti-Fc on a C1 chip, DLL3 titrated
T2 construct: also called DLL3 antigen
T2 sequence: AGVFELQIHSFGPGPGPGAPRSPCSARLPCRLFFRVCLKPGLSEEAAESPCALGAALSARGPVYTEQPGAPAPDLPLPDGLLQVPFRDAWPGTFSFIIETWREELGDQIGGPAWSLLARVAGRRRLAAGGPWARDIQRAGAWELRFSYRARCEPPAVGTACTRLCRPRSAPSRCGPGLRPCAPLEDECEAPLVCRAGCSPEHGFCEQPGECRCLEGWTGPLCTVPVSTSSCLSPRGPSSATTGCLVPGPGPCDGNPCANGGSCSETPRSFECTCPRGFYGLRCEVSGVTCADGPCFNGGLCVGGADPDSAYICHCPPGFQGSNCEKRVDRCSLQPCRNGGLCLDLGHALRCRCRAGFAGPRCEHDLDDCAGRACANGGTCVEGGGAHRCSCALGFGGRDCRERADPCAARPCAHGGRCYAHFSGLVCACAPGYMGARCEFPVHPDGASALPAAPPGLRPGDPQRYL

[3] = target: T2, recombinant human DLL3 (Example 9, …); assay: as above; remark: listed apart in the source
[4] = target: T3, human CD3 (CD3 epsilon as part of the T cell receptor complex) on cells (human, UniProt P07766 23-207); assay: flow cytometry on human pan T cells, antibody titrated 3-fold from 100 nM, AlexaFluor 647 anti-human secondary antibody, GEO Mean
T3 construct: also called CD3 on Jurkat cells; CD3 on human pan T cells

[5] = target: T4, DL3W37, human DLL3 EGF6 domain, HSA Fusion and C-term 6His tag (human); assay: MSD plate binding assay on coated DLL3 domain-HSA fusions
T4 construct: Fusion with the C34S variant of human serum albumin at the C-terminus of the DLL3 subdomain, plus 6xHis

[6] = target: T5, DL3W35, extracellular domain of human DLL3 linked to a C-terminal 6xHis-Tag and a linker (human, UniProt Q9NYJ7 27-479); assay: SPR (ProteOn), antibody captured by anti-Fc, DLL3 (DL3W35) titrated
T5 construct: also called human DLL3 ECD; huDLL3
T5 sequence: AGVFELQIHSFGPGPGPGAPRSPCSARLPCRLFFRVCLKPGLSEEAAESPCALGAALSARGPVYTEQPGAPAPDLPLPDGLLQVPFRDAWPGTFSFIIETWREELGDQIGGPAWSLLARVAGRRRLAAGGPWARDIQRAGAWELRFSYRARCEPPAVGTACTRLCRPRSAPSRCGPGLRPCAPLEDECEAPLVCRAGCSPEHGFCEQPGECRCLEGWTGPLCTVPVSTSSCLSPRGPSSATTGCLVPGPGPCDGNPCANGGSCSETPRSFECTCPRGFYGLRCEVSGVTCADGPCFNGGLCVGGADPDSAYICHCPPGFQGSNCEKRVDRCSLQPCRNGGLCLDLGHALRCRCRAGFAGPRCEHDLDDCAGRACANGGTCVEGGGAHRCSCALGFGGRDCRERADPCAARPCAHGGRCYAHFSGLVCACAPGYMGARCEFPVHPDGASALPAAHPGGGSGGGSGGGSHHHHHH

[7] = target: T6, DL3W33, Recombinant Human DLL1 ECD (Ser22-Gly540), -DI-C-6xHis (human, UniProt O00548 22-540); assay: SPR (ProteOn), antibody captured by anti-Fc; DLL1 at 100 nM and 1000 nM
T6 construct: also called huDLL1; TPP000049465
T6 sequence: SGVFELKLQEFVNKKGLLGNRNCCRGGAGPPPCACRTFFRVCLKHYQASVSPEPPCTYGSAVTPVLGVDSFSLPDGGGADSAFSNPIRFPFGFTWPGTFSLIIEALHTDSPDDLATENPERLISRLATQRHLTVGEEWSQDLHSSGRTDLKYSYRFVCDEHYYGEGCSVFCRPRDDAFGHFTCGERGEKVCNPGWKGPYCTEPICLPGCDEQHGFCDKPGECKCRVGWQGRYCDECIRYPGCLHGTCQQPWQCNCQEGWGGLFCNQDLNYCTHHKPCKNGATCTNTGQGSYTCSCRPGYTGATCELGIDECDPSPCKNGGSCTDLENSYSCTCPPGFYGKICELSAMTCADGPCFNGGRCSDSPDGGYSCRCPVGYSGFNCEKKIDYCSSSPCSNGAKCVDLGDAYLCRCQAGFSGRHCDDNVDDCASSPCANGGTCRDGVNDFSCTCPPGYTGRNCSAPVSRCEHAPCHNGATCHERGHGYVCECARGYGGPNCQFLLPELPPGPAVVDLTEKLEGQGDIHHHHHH

[8] = target: T7, DL3W34, human DLL4 ECD (Ser27-Pro524), C-10xHis (human, UniProt Q9NR61 27-524); assay: SPR (ProteOn), antibody captured by anti-Fc; DLL4 at 100 nM and 1000 nM
T7 construct: also called huDLL4; TPP0000494661
T7 sequence (Q9NR61 other isoform, or with tags, fused parts or gaps limits assumed): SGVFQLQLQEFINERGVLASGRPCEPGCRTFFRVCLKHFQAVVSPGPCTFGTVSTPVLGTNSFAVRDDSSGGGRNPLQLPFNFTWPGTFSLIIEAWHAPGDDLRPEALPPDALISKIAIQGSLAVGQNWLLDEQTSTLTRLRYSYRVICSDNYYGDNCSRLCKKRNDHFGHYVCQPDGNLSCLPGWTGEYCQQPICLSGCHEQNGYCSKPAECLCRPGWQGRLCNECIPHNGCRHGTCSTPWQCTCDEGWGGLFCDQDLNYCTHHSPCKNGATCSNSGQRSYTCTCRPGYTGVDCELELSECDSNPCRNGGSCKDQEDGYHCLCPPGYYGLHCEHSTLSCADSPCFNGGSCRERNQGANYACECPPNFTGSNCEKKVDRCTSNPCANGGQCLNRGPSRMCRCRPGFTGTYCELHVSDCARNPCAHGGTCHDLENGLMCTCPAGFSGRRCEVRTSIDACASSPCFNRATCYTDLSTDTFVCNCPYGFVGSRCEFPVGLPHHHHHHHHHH

T4 sequence (chain, as listed by the source limits assumed): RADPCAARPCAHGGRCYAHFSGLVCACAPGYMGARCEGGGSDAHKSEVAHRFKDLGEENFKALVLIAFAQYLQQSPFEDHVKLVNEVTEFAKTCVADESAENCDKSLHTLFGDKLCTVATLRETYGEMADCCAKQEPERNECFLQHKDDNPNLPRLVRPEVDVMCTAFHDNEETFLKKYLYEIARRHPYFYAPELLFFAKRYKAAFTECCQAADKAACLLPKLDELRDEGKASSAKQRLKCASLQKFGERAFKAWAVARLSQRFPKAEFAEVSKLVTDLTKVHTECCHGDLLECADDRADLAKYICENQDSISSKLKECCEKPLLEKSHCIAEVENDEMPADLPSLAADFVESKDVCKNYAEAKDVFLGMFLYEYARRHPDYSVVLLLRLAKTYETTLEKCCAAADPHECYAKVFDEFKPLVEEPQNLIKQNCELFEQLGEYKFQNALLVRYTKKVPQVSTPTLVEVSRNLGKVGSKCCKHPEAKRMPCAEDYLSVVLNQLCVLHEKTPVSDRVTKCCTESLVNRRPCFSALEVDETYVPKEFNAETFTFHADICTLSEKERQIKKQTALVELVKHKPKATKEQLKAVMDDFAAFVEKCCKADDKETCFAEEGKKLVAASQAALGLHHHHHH
T3 sequence (P07766 23-207 limits assumed, one chain of several): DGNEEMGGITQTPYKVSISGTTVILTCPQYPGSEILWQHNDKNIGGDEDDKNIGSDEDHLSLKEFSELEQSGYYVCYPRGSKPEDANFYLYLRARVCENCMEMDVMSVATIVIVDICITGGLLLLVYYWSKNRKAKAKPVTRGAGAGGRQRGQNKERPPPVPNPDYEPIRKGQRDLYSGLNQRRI

- Kd [2]: 0.024 nM
- Kd [3]: 0.024 nM
B1: DL3B585 (bispecific antibody, human IgG1, lambda, L234A L235A)
scFv: DIQMTQSPSSLSASVGDRVTITCRASQGISNYLAWFQQKPGKAPKSLIYAASSLQSGVPSKFSGSGSGTDFTLTISSLQPEDFATYYCQQYNSYPYTFAQGTKLEIKGGSEGKSSGSGSESKSTGGSQVQLVQSGAEVKKPGASVKVSCKASGNTFTNYYIHWVRQAPGQGLEWMGIINPSGGSTSYAQKLQGRMTMTRDTSTSTVYMELSSLRSEDTAVYFCARQGPFIGDAFDIWGQGTMVTVSSEPKSSDKTHTCPPCPAPEAAGGPSVFLFPPKPKDTLMISRTPEVTCVVVSVSHEDPEVKFNWYVDGVEVHNAKTKPREEQYNSTYRVVSVLTVLHQDWLNGKEYKCKVSNKALPAPIEKTISKAKGQPREPQVYVLPPSREEMTKNQVSLLCLVKGFYPSDIAVEWESNGQPENNYLTWPPVLDSDGSFFLYSKLTVDKSRWQQGNVFSCSVMHEALHNHYTQKSLSLS
heavy: QVQLQQSGPRLVRPSQTLSLTCAISGDSVFNNNAAWSWIRQSPSRGLEWLGRTYYRSKWLYDYAVSVKSRITVNPDTSRNQFTLQLNSVTPEDTALYYCARGYSSSFDYWGQGTLVTVSSASTKGPSVFPLAPSSKSTSGGTAALGCLVKDYFPEPVTVSWNSGALTSGVHTFPAVLQSSGLYSLSSVVTVPSSSLGTQTYICNVNHKPSNTKVDKKVEPKSCDKTHTCPPCPAPEAAGGPSVFLFPPKPKDTLMISRTPEVTCVVVSVSHEDPEVKFNWYVDGVEVHNAKTKPREEQYNSTYRVVSVLTVLHQDWLNGKEYKCKVSNKALPAPIEKTISKAKGQPREPQVYVYPPSREEMTKNQVSLTCLVKGFYPSDIAVEWESNGQPENNYKTTPPVLDSDGSFALVSKLTVDKSRWQQGNVFSCSVMHEALHNHYTQKSLSLSPG
light: QSALTQPASVSGSPGQSITISCTGTSSNIGTYKFVSWYQQHPDKAPKVLLYEVSKRPSGVSSRFSGSKSGNTASLTISGLQAEDQADYHCVSYAGSGTLLFGGGTKLTVLGQPKAAPSVTLFPPSSEELQANKATLVCLISDFYPGAVTVAWKADSSPVKAGVETTTPSKQSNNKYAASSYLSLTPEQWKSHRSYSCQVTHEGSTVEKTVAPTECS
notes: DLL3 arm: DL3B279-LH-scFv-Fc; CD3 arm: CD3B376-Fab-Fc; also called CD3B376-Fab; DL3B279-LH-scFv
- Cytotoxicity (% Lysis), SHP-77, whole PBMCs, 1:1 ET ratio, 30 nM [1]: 58.1%

- Kd [2]: 0.031 nM
- binding result [4]: binds
B2: DL3B587 (bispecific antibody, human IgG1, kappa, L234A L235A)
scFv: B1 scFv
heavy: EVQLVESGGGLVKPGGSLRLSCAASGFTFSRYNMNWVRQAPGKGLEWVSSISTSSNYIYYADSVKGRFTFSRDNAKNSLDLQMSGLRAEDTAIYYCTRGWGPFDYWGQGTLVTVSSASTKGPSVFPLAPSSKSTSGGTAALGCLVKDYFPEPVTVSWNSGALTSGVHTFPAVLQSSGLYSLSSVVTVPSSSLGTQTYICNVNHKPSNTKVDKKVEPKSCDKTHTCPPCPAPEAAGGPSVFLFPPKPKDTLMISRTPEVTCVVVSVSHEDPEVKFNWYVDGVEVHNAKTKPREEQYNSTYRVVSVLTVLHQDWLNGKEYKCKVSNKALPAPIEKTISKAKGQPREPQVYVYPPSREEMTKNQVSLTCLVKGFYPSDIAVEWESNGQPENNYKTTPPVLDSDGSFALVSKLTVDKSRWQQGNVFSCSVMHEALHNHYTQKSLSLSPG
light: DIQMTQSPSSLSASVGDRVTITCRARQSIGTAIHWYQQKPGKAPKLLIKYASESISGVPSRFSGSGSGTDFTLTISSLQPEDFATYYCQQSGSWPYTFGQGTKLEIKRTVAAPSVFIFPPSDEQLKSGTASVVCLLNNFYPREAKVQWKVDNALQSGNSQESVTEQDSKDSTYSLSSTLTLSKADYEKHKVYACEVTHQGLSSPVTKSFNRGEC
notes: DLL3 arm: DL3B279-LH-scFv-Fc; CD3 arm: CD3W245-Fab-Fc; also called CD3W245-Fab; DL3B279-LH-scFv
- Cytotoxicity (% Lysis), SHP-77, whole PBMCs, 1:1 ET ratio, 30 nM [1]: 83.3%

- binding result [5]: binds
- Kd [6]: 0.0734 nM
- binding result [7]: no binding (tested: 1000 nM)
- binding result [8]: no binding (tested: 1000 nM)
B3: DL3B571 (Fc fusion)
scFv: EIVLTQSPGTLSLSPGERATLSCRASQSASSYLAWYQQKPGQAPRLLIYGASSRATGIPDRFSGSGSGTDFTLTISRLEPEDFAVYYCQQYNSSPYTFGQGTKLEIKGGSEGKSSGSGSESKSTGGSQVQLVQSGAEVKKPGASVKVSCKASGHIFISYYIHWVRQAPGQGLEWMGIIDPSGGSKSYAQKFQGRVTMTRDTSTSTVYMELSSLRSEDTAVYYCARQGMIVGTTGDAFDIWGQGTMVTVSS
notes: also called DL3B358 scFv-Fc; not shown: wild-type IgG1 Fc domain

— patent publication US20240025992A1 (Janssen / Centocor, published 2024)
